Experimental data reported in article PMC9482650, “Quantitative fragmentomics allow affinity mapping of interactomes” (Nature Communications, 2022).

T1: GRIP1_3, Q9Y3R0
T1 sequence (Q9Y3R0 247-346, limits assumed, looked up): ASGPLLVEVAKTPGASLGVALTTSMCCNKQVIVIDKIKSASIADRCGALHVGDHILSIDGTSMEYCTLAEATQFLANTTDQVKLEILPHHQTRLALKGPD

T2: SHANK1, Q9Y566
T2 sequence (Q9Y566 658-767, limits assumed, looked up): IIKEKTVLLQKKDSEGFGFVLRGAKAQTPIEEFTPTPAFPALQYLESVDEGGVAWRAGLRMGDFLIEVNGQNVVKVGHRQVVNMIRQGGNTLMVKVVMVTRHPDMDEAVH

T3: APBA3_1, O96018
T3 sequence (O96018 389-490, limits assumed, looked up): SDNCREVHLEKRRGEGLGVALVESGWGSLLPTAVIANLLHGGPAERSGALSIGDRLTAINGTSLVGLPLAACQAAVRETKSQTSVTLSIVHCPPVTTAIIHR

T4: MPDZ_10, O75970
T4 sequence (O75970 1624-1722, limits assumed, looked up): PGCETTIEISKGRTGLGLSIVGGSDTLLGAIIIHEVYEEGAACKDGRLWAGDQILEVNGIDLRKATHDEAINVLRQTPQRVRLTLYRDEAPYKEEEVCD

T5: DVL3, Q92997
T5 sequence (Q92997 244-331, limits assumed, looked up): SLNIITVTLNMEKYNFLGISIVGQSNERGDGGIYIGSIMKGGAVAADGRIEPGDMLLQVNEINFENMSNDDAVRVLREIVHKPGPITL

T6: MPDZ_5, O75970
T6 sequence (O75970 695-796, limits assumed, looked up): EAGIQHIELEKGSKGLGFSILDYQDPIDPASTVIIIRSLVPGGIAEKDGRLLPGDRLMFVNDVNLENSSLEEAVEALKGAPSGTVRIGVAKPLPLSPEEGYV

T7: SNTA1, Q13424
T7 sequence (Q13424 82-180, limits assumed, looked up): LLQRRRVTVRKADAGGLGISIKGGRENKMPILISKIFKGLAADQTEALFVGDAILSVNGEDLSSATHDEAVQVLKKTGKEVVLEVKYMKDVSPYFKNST

T8: PDZD7_3, Q9H5P4
T8 sequence (Q9H5P4 857-944, limits assumed, looked up): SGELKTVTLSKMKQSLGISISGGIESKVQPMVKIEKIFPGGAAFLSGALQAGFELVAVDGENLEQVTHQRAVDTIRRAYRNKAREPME

T9: PARD3B_1, Q8TEW8
T9 sequence (Q8TEW8 196-299, limits assumed, looked up): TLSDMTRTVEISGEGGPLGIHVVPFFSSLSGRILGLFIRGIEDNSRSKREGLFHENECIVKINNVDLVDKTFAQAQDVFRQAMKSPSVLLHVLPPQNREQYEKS

T10: RADIL, Q96JH8
T10 sequence (Q96JH8 971-1071, limits assumed, looked up): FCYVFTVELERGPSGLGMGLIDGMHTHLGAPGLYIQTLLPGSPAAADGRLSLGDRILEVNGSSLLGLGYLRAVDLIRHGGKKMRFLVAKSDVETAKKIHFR

T11: SNTG1, Q9NSN8
T11 sequence (Q9NSN8 52-150, limits assumed, looked up): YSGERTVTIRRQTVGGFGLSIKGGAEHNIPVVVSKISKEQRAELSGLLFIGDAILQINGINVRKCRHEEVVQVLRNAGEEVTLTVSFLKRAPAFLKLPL

T12: LNX2_2, Q8N448
T12 sequence (Q8N448 334-432, limits assumed, looked up): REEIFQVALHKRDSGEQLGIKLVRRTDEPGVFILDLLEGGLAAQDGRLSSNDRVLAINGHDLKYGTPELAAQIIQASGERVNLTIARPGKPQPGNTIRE

T13: PCLO, Q9Y6V0
T13 sequence (Q9Y6V0 4491-4600, limits assumed, looked up): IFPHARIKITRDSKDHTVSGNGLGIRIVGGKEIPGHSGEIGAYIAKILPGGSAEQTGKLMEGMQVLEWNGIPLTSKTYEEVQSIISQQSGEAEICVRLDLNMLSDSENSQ


Tests used:
Assay in all cases: holdup assay
Design in all cases: key: below the threshold = too weak to quantify, mostly under pKd 3.1 to 4
Conditions in all cases: plain residues with an end cap or a label only (N-terminal biotin on a linker: ado-ado)
GRIP1_3, Q9Y3R0 = target: T1, GRIP1_3, Q9Y3R0
MAGI1_2, Q96QZ7 = target: MAGI1_2, Q96QZ7
MAGI1_2, Q96QZ7, sequence (Q96QZ7 456-580): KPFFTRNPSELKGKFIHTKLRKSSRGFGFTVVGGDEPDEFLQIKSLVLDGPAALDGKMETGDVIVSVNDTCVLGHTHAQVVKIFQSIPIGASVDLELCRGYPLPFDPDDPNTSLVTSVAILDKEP

LNX1_1, Q8TBB1 = target: LNX1_1, Q8TBB1
LNX1_1, Q8TBB1, sequence (Q8TBB1 261-371): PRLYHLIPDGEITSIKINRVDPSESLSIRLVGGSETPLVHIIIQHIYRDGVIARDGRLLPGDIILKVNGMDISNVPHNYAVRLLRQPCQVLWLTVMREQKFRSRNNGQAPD

SHANK1, Q9Y566 = target: T2, SHANK1, Q9Y566
APBA3_1, O96018 = target: T3, APBA3_1, O96018
DLG4_2, P78352 = target: DLG4_2, P78352
DLG4_2, P78352, sequence (P78352 155-259): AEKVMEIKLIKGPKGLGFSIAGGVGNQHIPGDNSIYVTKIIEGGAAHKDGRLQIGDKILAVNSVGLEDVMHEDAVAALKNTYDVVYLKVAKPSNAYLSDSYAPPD

MPDZ_10, O75970 = target: T4, MPDZ_10, O75970
DVL3, Q92997 = target: T5, DVL3, Q92997
MPDZ_5, O75970 = target: T6, MPDZ_5, O75970
IL16_1, Q14005 = target: IL16_1, Q14005
IL16_1, Q14005, sequence (Q14005 210-306): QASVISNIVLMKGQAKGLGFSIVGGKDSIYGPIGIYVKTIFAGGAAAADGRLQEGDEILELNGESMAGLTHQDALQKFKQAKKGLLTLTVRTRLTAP

PDZRN4_1, Q6ZMN7 = target: PDZRN4_1, Q6ZMN7
PDZRN4_1, Q6ZMN7, sequence (Q6ZMN7 213-318): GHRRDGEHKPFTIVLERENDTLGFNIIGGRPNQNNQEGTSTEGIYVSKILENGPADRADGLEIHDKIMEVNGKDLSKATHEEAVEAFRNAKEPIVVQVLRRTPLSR

FRMPD2_3, Q68DX3 = target: FRMPD2_3, Q68DX3
FRMPD2_3, Q68DX3, sequence (Q68DX3 1073-1166): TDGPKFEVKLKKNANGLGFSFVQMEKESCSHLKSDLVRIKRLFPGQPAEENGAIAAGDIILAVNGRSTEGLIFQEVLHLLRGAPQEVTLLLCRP

GRID2IP_1, A4D2P6 = target: GRID2IP_1, A4D2P6
GRID2IP_1, A4D2P6, sequence (A4D2P6 1-87): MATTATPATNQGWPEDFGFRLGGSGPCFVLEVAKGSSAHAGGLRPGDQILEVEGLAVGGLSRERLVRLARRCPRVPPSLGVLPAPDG

Inadl_3, Q8NI35 = target: Inadl_3, Q8NI35
Inadl_3, Q8NI35, sequence (Q8NI35 359-469): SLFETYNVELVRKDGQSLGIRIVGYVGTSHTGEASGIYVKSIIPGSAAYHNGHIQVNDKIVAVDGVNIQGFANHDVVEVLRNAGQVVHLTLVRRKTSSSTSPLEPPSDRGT

MAGI2_4, Q86UL8 = target: MAGI2_4, Q86UL8
MAGI2_4, Q86UL8, sequence (Q86UL8 772-865): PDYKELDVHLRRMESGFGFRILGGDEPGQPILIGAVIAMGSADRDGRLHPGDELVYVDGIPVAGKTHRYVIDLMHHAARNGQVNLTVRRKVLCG

SNTA1, Q13424 = target: T7, SNTA1, Q13424
PDZD7_3, Q9H5P4 = target: T8, PDZD7_3, Q9H5P4
PARD3B_1, Q8TEW8 = target: T9, PARD3B_1, Q8TEW8
RADIL, Q96JH8 = target: T10, RADIL, Q96JH8
CASK, O14936 = target: CASK, O14936
CASK, O14936, sequence (O14936 487-570): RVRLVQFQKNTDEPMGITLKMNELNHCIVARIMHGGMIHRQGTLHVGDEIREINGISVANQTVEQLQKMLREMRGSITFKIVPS

LIMK2, P53671 = target: LIMK2, P53671
LIMK2, P53671, sequence (P53671 143-248): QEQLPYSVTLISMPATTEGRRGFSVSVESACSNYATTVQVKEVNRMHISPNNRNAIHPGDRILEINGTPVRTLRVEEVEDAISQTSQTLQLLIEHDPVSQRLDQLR

SNTG1, Q9NSN8 = target: T11, SNTG1, Q9NSN8
LNX2_2, Q8N448 = target: T12, LNX2_2, Q8N448
PCLO, Q9Y6V0 = target: T13, PCLO, Q9Y6V0

Row | pKd (GRIP1_3, Q9Y3R0) | pKd (MAGI1_2, Q96QZ7) | pKd (LNX1_1, Q8TBB1) | pKd (SHANK1, Q9Y566) | pKd (APBA3_1, O96018) | pKd (DLG4_2, P78352) | pKd (MPDZ_10, O75970) | pKd (DVL3, Q92997) | pKd (MPDZ_5, O75970) | pKd (IL16_1, Q14005) | pKd (PDZRN4_1, Q6ZMN7) | pKd (FRMPD2_3, Q68DX3) | pKd (GRID2IP_1, A4D2P6) | pKd (Inadl_3, Q8NI35) | pKd (MAGI2_4, Q86UL8) | pKd (SNTA1, Q13424) | pKd (PDZD7_3, Q9H5P4) | pKd (PARD3B_1, Q8TEW8) | pKd (RADIL, Q96JH8) | pKd (CASK, O14936) | Binder | also measured
1 | below the threshold | 4.25 | below the threshold | below the threshold | below the threshold | 3.7 | below the threshold | below the threshold | below the threshold | below the threshold | below the threshold | below the threshold | below the threshold | below the threshold | below the threshold | below the threshold | 4.78 | 4.41 | 3.94 | below the threshold | SRPTKGPTLL [PLEKHH2, Q8IVE3] | pKd (LIMK2, P53671): below the threshold; pKd (SNTG1, Q9NSN8): below the threshold; pKd (LNX2_2, Q8N448): below the threshold; pKd (PCLO, Q9Y6V0): below the threshold
2 | below the threshold | 3.91 | 4.85 | 4.58 | below the threshold | 4.81 | 3.62 | below the threshold | below the threshold | 3.85 | 3.78 | below the threshold | below the threshold | 4.66 | 4.88 | 4.47 | 4.85 | below the threshold | 4.48 | below the threshold | RQSILFSTEV [BCR, P11274] | pKd (LIMK2, P53671): below the threshold; pKd (SNTG1, Q9NSN8): 4.67; pKd (LNX2_2, Q8N448): 4.71; pKd (PCLO, Q9Y6V0): below the threshold
3 | below the threshold | below the threshold | below the threshold | below the threshold | below the threshold | below the threshold | below the threshold | 3.87 | 3.52 | below the threshold | below the threshold | below the threshold | below the threshold | below the threshold | below the threshold | below the threshold | below the threshold | 5 | 4.53 | below the threshold | LTAQEQPVYI [APBA1, Q02410] | pKd (LIMK2, P53671): below the threshold; pKd (SNTG1, Q9NSN8): below the threshold; pKd (LNX2_2, Q8N448): 4.9; pKd (PCLO, Q9Y6V0): below the threshold
4 | below the threshold | below the threshold | below the threshold | below the threshold | below the threshold | 4.8 | below the threshold | below the threshold | below the threshold | below the threshold | 3.81 | below the threshold | below the threshold | below the threshold | below the threshold | 4.22 | 4.31 | below the threshold | 3.89 | below the threshold | PLDSQQHTEV [FAT1, Q14517] | pKd (LIMK2, P53671): below the threshold; pKd (SNTG1, Q9NSN8): 4.04; pKd (LNX2_2, Q8N448): 4.35; pKd (PCLO, Q9Y6V0): below the threshold
5 | below the threshold | below the threshold | below the threshold | below the threshold | below the threshold | 3.91 | below the threshold | below the threshold | below the threshold | 3.9 | 4.66 | below the threshold | below the threshold | below the threshold | below the threshold | 4.7 | 4.8 | 4.21 | below the threshold | below the threshold | PELESKESVL [SLC1A4, P43007] | pKd (LIMK2, P53671): below the threshold; pKd (SNTG1, Q9NSN8): 3.68; pKd (LNX2_2, Q8N448): below the threshold; pKd (PCLO, Q9Y6V0): below the threshold
6 | below the threshold | below the threshold | 3.87 | below the threshold | below the threshold | 3.5 | below the threshold | below the threshold | below the threshold | below the threshold | below the threshold | below the threshold | below the threshold | below the threshold | 3.55 | below the threshold | below the threshold | 3.72 | below the threshold | below the threshold | EEDTAEKDEL [HSPA5, P11021] | pKd (LIMK2, P53671): below the threshold; pKd (SNTG1, Q9NSN8): below the threshold; pKd (LNX2_2, Q8N448): below the threshold; pKd (PCLO, Q9Y6V0): below the threshold
